Literature values as cited in article PMC6944378.

Biological target: MASP-2 (Homo sapiens) (UniProt O00187)
Assay: SPR

Sequence of MASP-2 (Homo sapiens) (O00187 16-686): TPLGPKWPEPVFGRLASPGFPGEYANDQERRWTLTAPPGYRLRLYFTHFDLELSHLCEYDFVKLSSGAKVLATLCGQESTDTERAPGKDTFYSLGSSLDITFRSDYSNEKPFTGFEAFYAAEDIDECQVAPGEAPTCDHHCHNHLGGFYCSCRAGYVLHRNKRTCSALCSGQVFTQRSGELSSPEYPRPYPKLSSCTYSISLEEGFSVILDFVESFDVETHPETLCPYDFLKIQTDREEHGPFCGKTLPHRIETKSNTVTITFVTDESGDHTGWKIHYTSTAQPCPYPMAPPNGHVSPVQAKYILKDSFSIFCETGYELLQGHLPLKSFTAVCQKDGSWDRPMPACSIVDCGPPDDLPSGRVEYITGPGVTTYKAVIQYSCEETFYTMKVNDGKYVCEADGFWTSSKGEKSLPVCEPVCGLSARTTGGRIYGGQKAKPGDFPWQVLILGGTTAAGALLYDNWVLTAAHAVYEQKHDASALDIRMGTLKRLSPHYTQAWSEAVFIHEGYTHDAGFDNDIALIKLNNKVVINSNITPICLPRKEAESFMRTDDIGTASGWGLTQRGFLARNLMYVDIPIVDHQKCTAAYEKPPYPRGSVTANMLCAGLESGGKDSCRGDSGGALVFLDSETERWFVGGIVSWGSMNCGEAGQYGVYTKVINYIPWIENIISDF

ecotin (from UniProt P23827)
Kd: 24.7 nM
